In article PMC10540216, “Activity Guided Azide-methyllysine Photo-trapping for Substrate Profiling of Lysine Demethylases” (Journal of the American Chemical Society, 2023):

B1: PAIRB_HUMAN (protein, UniProt Q8NC51 2-408, looked up)
SERPINE1 mRNA-binding protein …: PGHLQEGFGCVVTNRFDQLFDDESDPFEVLKAAENKKKEAGGGGVGGPGAKSAAQAAAQTNSNAAGKQLRKESQKDRKNPLPPSVGVVDKKEETQPPVALKKEGIRRVGRRPDQQLQGEGKIIDRRPERRPPRERRFEKPLEEKGEGGEFSVDRPIIDRPIRGRGGLGRGRGGRGRGMGRGDGFDSRGKREFDRHSGSDRSSFSHYSGLKHEDKRGGSGSHNWGTVKDELTESPKYIQKQISYNYSDLDQSNVTEETPEGEEHHPVADTENKENEVEEVKEEGPKEMTLDEWKAIQNKDRAKVEFNIRKPNEGADGQWKKGFVLHKSKSEEAHAEDSVMDHHFRKPANDITSQLEINFGDLGRPGRGGRGGRGGRGRGGRPNRGSRTDKSSASAPDVDDPEAFPALA
B2: KDM4A_HUMAN (protein, UniProt O75164 2-1064, looked up)
Lysine-specific demethylase 4A: ASESETLNPSARIMTFYPTMEEFRNFSRYIAYIESQGAHRAGLAKVVPPKEWKPRASYDDIDDLVIPAPIQQLVTGQSGLFTQYNIQKKAMTVREFRKIANSDKYCTPRYSEFEELERKYWKNLTFNPPIYGADVNGTLYEKHVDEWNIGRLRTILDLVEKESGITIEGVNTPYLYFGMWKTSFAWHTEDMDLYSINYLHFGEPKSWYSVPPEHGKRLERLAKGFFPGSAQSCEAFLRHKMTLISPLMLKKYGIPFDKVTQEAGEFMITFPYGYHAGFNHGFNCAESTNFATRRWIEYGKQAVLCSCRKDMVKISMDVFVRKFQPERYKLWKAGKDNTVIDHTLPTPEAAEFLKESELPPRAGNEEECPEEDMEGVEDGEEGDLKTSLAKHRIGTKRHRVCLEIPQEVSQSELFPKEDLSSEQYEMTECPAALAPVRPTHSSVRQVEDGLTFPDYSDSTEVKFEELKNVKLEEEDEEEEQAAAALDLSVNPASVGGRLVFSGSKKKSSSSLGSGSSRDSISSDSETSEPLSCRAQGQTGVLTVHSYAKGDGRVTVGEPCTRKKGSAARSFSERELAEVADEYMFSLEENKKSKGRRQPLSKLPRHHPLVLQECVSDDETSEQLTPEEEAEETEAWAKPLSQLWQNRPPNFEAEKEFNETMAQQAPHCAVCMIFQTYHQVEFGGFNQNCGNASDLAPQKQRTKPLIPEMCFTSTGCSTDINLSTPYLEEDGTSILVSCKKCSVRVHASCYGVPPAKASEDWMCSRCSANALEEDCCLCSLRGGALQRANDDRWVHVSCAVAILEARFVNIAERSPVDVSKIPLPRFKLKCIFCKKRRKRTAGCCVQCSHGRCPTAFHVSCAQAAGVMMQPDDWPFVVFITCFRHKIPNLERAKGALQSITAGQKVISKHKNGRFYQCEVVRLTTETFYEVNFDDGSFSDNLYPEDIVSQDCLQFGPPAEGEVVQVRWTDGQVYGAKFVASHPIQMYQVEFEDGSQLVVKRDDVYTLDEELPKRVKSRLSVASDMRFNEIFTEKEVKQEKKRQRVINSRYREDYIEPALYRAIME
B3: THIO_HUMAN (protein, UniProt P10599 2-105, looked up)
Thioredoxin: VKQIESKTAFQEALDAAGDKLVVVDFSATWCGPCKMIKPFFHSLSEKYSNVIFLEVDVDDCQDVASECEVKCMPTFQFFKKGQKVGEFSGANKEKLEATINELV
B4: EF1A1_HUMAN (protein, UniProt P68104 2-462, looked up)
Elongation factor 1-alpha 1: GKEKTHINIVVIGHVDSGKSTTTGHLIYKCGGIDKRTIEKFEKEAAEMGKGSFKYAWVLDKLKAERERGITIDISLWKFETSKYYVTIIDAPGHRDFIKNMITGTSQADCAVLIVAAGVGEFEAGISKNGQTREHALLAYTLGVKQLIVGVNKMDSTEPPYSQKRYEEIVKEVSTYIKKIGYNPDTVAFVPISGWNGDNMLEPSANMPWFKGWKVTRKDGNASGTTLLEALDCILPPTRPTDKPLRLPLQDVYKIGGIGTVPVGRVETGVLKPGMVVTFAPVNVTTEVKSVEMHHEALSEALPGDNVGFNVKNVSVKDVRRGNVAGDSKNDPPMEAAGFTAQVIILNHPGQISAGYAPVLDCHTAHIACKFAELKEKIDRRSGKKLEDGPKFLKSGDAAIVDMVPGKPMCVESFSDYPPLGRFAVRDMRQTVAVGVIKAVDKKAAGAGKVTKSAQKAQKAK
B5: IF4A2_HUMAN (protein, UniProt Q14240 1-407, looked up)
Eukaryotic initiation factor …: MSGGSADYNREHGGPEGMDPDGVIESNWNEIVDNFDDMNLKESLLRGIYAYGFEKPSAIQQRAIIPCIKGYDVIAQAQSGTGKTATFAISILQQLEIEFKETQALVLAPTRELAQQIQKVILALGDYMGATCHACIGGTNVRNEMQKLQAEAPHIVVGTPGRVFDMLNRRYLSPKWIKMFVLDEADEMLSRGFKDQIYEIFQKLNTSIQVVLLSATMPTDVLEVTKKFMRDPIRILVKKEELTLEGIKQFYINVEREEWKLDTLCDLYETLTITQAVIFLNTRRKVDWLTEKMHARDFTVSALHGDMDQKERDVIMREFRSGSSRVLITTDLLARGIDVQQVSLVINYDLPTNRENYIHRIGRGGRFGRKGVAINFVTEEDKRILRDIETFYNTTVEEMPMNVADLI
B6: MPCP_HUMAN (protein, UniProt Q00325 50-362, looked up)
Solute carrier family 25 …: AVEEQYSCDYGSGRFFILCGLGGIISCGTTHTALVPLDLVKCRMQVDPQKYKGIFNGFSVTLKEDGVRGLAKGWAPTFLGYSMQGLCKFGFYEVFKVLYSNMLGEENTYLWRTSLYLAASASAEFFADIALAPMEAAKVRIQTQPGYANTLRDAAPKMYKEEGLKAFYKGVAPLWMRQIPYTMMKFACFERTVEALYKFVVPKPRSECSKPEQLVVTFVAGYIAGVFCAIVSHPADSVVSVLNKEKGSSASLVLKRLGFKGVWKGLFARIIMIGTLTALQWFIYDSVKVYFRLPRPPPPEMPESLKKKLGLTQ
B7: ECHB_HUMAN (protein, UniProt P55084 34-474, looked up)
Trifunctional enzyme subunit …: AAPAVQTKTKKTLAKPNIRNVVVVDGVRTPFLLSGTSYKDLMPHDLARAALTGLLHRTSVPKEVVDYIIFGTVIQEVKTSNVAREAALGAGFSDKTPAHTVTMACISANQAMTTGVGLIASGQCDVIVAGGVELMSDVPIRHSRKMRKLMLDLNKAKSMGQRLSLISKFRFNFLAPELPAVSEFSTSETMGHSADRLAAAFAVSRLEQDEYALRSHSLAKKAQDEGLLSDVVPFKVPGKDTVTKDNGIRPSSLEQMAKLKPAFIKPYGTVTAANSSFLTDGASAMLIMAEEKALAMGYKPKAYLRDFMYVSQDPKDQLLLGPTYATPKVLEKAGLTMNDIDAFEFHEAFSGQILANFKAMDSDWFAENYMGRKTKVGLPPLEKFNNWGGSLSLGHPFGATGCRLVMAAANRLRKEGGQYGLVAACAAGGQGHAMIVEAYPK
B8: ADT2_HUMAN (protein, UniProt P05141 1-298, looked up)
ADP/ATP translocase 2: MTDAAVSFAKDFLAGGVAAAISKTAVAPIERVKLLLQVQHASKQITADKQYKGIIDCVVRIPKEQGVLSFWRGNLANVIRYFPTQALNFAFKDKYKQIFLGGVDKRTQFWLYFAGNLASGGAAGATSLCFVYPLDFARTRLAADVGKAGAEREFRGLGDCLVKIYKSDGIKGLYQGFNVSVQGIIIYRAAYFGIYDTAKGMLPDPKNTHIVISWMIAQTVTAVAGLTSYPFDTVRRRMMMQSGRKGTDIMYTGTLDCWRKIARDEGGKAFFKGAWSNVLRGMGGAFVLVLYDEIKKYT
B9: ATPA_HUMAN (protein, UniProt P25705 44-553, looked up)
ATP synthase F(1) complex …: QKTGTAEMSSILEERILGADTSVDLEETGRVLSIGDGIARVHGLRNVQAEEMVEFSSGLKGMSLNLEPDNVGVVVFGNDKLIKEGDIVKRTGAIVDVPVGEELLGRVVDALGNAIDGKGPIGSKTRRRVGLKAPGIIPRISVREPMQTGIKAVDSLVPIGRGQRELIIGDRQTGKTSIAIDTIINQKRFNDGSDEKKKLYCIYVAIGQKRSTVAQLVKRLTDADAMKYTIVVSATASDAAPLQYLAPYSGCSMGEYFRDNGKHALIIYDDLSKQAVAYRQMSLLLRRPPGREAYPGDVFYLHSRLLERAAKMNDAFGGGSLTALPVIETQAGDVSAYIPTNVISITDGQIFLETELFYKGIRPAINVGLSVSRVGSAAQTRAMKQVAGTMKLELAQYREVAAFAQFGSDLDAATQQLLSRGVRLTELLKQGQYSPMAIEEQVAVIYAGVRGYLDKLEPSKITKFENAFLSHVVSQHQALLGTIRADGKISEQSDAKLKEIVTNFLAGFEA
B10: RBMX_HUMAN (protein, UniProt P38159 1-391, looked up)
RNA-binding motif protein, X …: MVEADRPGKLFIGGLNTETNEKALEAVFGKYGRIVEVLLMKDRETNKSRGFAFVTFESPADAKDAARDMNGKSLDGKAIKVEQATKPSFESGRRGPPPPPRSRGPPRGLRGGRGGSGGTRGPPSRGGHMDDGGYSMNFNMSSSRGPLPVKRGPPPRSGGPPPKRSAPSGPVRSSSGMGGRAPVSRGRDSYGGPPRREPLPSRRDVYLSPRDDGYSTKDSYSSRDYPSSRDTRDYAPPPRDYTYRDYGHSSSRDDYPSRGYSDRDGYGRDRDYSDHPSGGSYRDSYESYGNSRSAPPTRGPPPSYGGSSRYDDYSSSRDGYGGSRDSYSSSRSDLYSSGRDRVGRQERGLPPSMERGYPPPRDSYSSSSRGAPRGGGRGGSRSDRGGGRSRY
B11: KDM4C_HUMAN (protein, UniProt Q9H3R0 1-1056, looked up)
Lysine-specific demethylase 4C: MEVAEVESPLNPSCKIMTFRPSMEEFREFNKYLAYMESKGAHRAGLAKVIPPKEWKPRQCYDDIDNLLIPAPIQQMVTGQSGLFTQYNIQKKAMTVKEFRQLANSGKYCTPRYLDYEDLERKYWKNLTFVAPIYGADINGSIYDEGVDEWNIARLNTVLDVVEEECGISIEGVNTPYLYFGMWKTTFAWHTEDMDLYSINYLHFGEPKSWYAIPPEHGKRLERLAQGFFPSSSQGCDAFLRHKMTLISPSVLKKYGIPFDKITQEAGEFMITFPYGYHAGFNHGFNCAESTNFATVRWIDYGKVAKLCTCRKDMVKISMDIFVRKFQPDRYQLWKQGKDIYTIDHTKPTPASTPEVKAWLQRRRKVRKASRSFQCARSTSKRPKADEEEEVSDEVDGAEVPNPDSVTDDLKVSEKSEAAVKLRNTEASSEEESSASRMQVEQNLSDHIKLSGNSCLSTSVTEDIKTEDDKAYAYRSVPSISSEADDSIPLSSGYEKPEKSDPSELSWPKSPESCSSVAESNGVLTEGEESDVESHGNGLEPGEIPAVPSGERNSFKVPSIAEGENKTSKSWRHPLSRPPARSPMTLVKQQAPSDEELPEVLSIEEEVEETESWAKPLIHLWQTKSPNFAAEQEYNATVARMKPHCAICTLLMPYHKPDSSNEENDARWETKLDEVVTSEGKTKPLIPEMCFIYSEENIEYSPPNAFLEEDGTSLLISCAKCCVRVHASCYGIPSHEICDGWLCARCKRNAWTAECCLCNLRGGALKQTKNNKWAHVMCAVAVPEVRFTNVPERTQIDVGRIPLQRLKLKCIFCRHRVKRVSGACIQCSYGRCPASFHVTCAHAAGVLMEPDDWPYVVNITCFRHKVNPNVKSKACEKVISVGQTVITKHRNTRYYSCRVMAVTSQTFYEVMFDDGSFSRDTFPEDIVSRDCLKLGPPAEGEVVQVKWPDGKLYGAKYFGSNIAHMYQVEFEDGSQIAMKREDIYTLDEELPKRVKARFSTASDMRFEDTFYGADIIQGERKRQRVLSSRFKNEYVADPVYRTFLKSSFQKKCQKRQ

tested on: KDM4A-I71AzF; experiment: CASI: photo-crosslinking with HEK293T cell extracts, StrepTactin enrichment and LC-MS/MS proteomics; assay type: binding, human; details: sheet "Final results but with 0.01";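 further: lysates from HEK293T cells pretreated with a KDM4 inhibitor to raise proteome methylation, affinity-purified after ±UV, gel-resolved, trypsin-digested, with exclusive unique peptides per protein averaged per condition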

First: B1
Second: B2
The “Fold change (+UV/-UV)” value of the first is lower: 0.8571 for the first, 1.184 for the second.

Going from B3 to B4, the “Fold change (+UV/-UV)” value rises from 0.5 to 0.9444.

Compared with B5, B6 is lower in “Fold change (+UV/-UV)” value: 200 for the first, 1 for the second.

Going from B7 to B8, the “Fold change (+UV/-UV)” value rises from 0 to 0.8333.

Going from B9 to B10, the “Fold change (+UV/-UV)” value rises from 1.4 to 200.

For B11, the “Fold change (+UV/-UV)” value was 1.333.
